Experimental data taken from paper PMC10838295.

Biological target: pyrrolated BSA (pyrBSA), P02769
Experiment: ELISA
Conditions: chain shown with the change, left panel, antigen pyrBSA, read off a plot

Sequence of pyrrolated BSA (pyrBSA), P02769 (P02769 25-607): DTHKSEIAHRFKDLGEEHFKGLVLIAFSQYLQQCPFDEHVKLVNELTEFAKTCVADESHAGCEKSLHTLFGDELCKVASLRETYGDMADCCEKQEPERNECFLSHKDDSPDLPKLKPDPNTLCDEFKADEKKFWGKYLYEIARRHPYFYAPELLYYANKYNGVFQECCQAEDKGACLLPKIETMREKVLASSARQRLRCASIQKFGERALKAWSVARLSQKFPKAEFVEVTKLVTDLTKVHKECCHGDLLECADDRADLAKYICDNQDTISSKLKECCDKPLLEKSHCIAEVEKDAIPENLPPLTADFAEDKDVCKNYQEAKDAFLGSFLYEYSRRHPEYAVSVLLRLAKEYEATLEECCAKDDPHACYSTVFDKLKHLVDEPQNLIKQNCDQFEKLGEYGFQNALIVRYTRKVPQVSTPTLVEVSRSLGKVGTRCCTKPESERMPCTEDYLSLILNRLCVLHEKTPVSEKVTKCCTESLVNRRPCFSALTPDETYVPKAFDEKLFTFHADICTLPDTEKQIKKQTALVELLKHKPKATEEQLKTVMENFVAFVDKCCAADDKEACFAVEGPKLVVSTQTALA

B1: VH DO1 (VH-His6 of scFv DO1) R97A (protein)
chain: EVQLQQSGPELVKPGASVKMSCKASGYTFTSYVMHWVKQKPGQGLEWIGYINPHNDGTKYNEKFKGKATLTSDKSSSTAYMELSSLTSEDSAVYYCARKLAGFAYWGQGTLVTVSS
response (VH about 6.4 nM (4th point of the titration, read from the log x axis), parent: est. 1.7): 0.65 Abs (490 nm) | response (VH about 16 nM (5th point of the titration, read from the log x axis), parent: est. 3.1): 1.9 Abs (490 nm)
